Laboratory results published in the supplement of paper PMC9112550, “Optimization of the antimicrobial peptide Bac7 by deep mutational scanning” (BMC Biology, 2022).

Test system: Escherichia coli TOP10
Assay: shrunken log2 fold change of peptide-encoding DNA abundance (4.5 h post-induction vs induction); higher = less antimicrobial activity (less host growth inhibition)
Settings: time post-induction: 4.5 h; library: site-saturation at positions 5, 18, 19, 20
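Further: peptides expressed intracellularly from a pBAD plasmid library in pooled LB shake-flask culture, induced with 0.3% L-arabinose, DNA abundance read by NGS, three biological replicates, DESeq2 with apeglm shrinkage.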

Sequence	shrunken log2 fold change
RRIRHRPPRLPRPRPRPYMMPRP	-3.2
RRIRRRPPRLPRPRPRPDRTPRP	0.222
RRIRMRPPRLPRPRPRPNKQPRP	0.0442
RRIRKRPPRLPRPRPRPGSRPRP	-0.171
RRIRWRPPRLPRPRPRPNKKPRP	-0.076
RRIRIRPPRLPRPRPRPFDSPRP	0.0157
RRIRPRPPRLPRPRPRPRWIPRP	0.157
RRIRCRPPRLPRPRPRPPEMPRP	0.67
RRIRPRPPRLPRPRPRPGRIPRP	0.0185
RRIRRRPPRLPRPRPRPNFYPRP	-0.124
RRIRARPPRLPRPRPRPALFPRP	0.61
RRIRFRPPRLPRPRPRPLKVPRP	-0.112
RRIRERPPRLPRPRPRPMKAPRP	-0.00245
RRIRWRPPRLPRPRPRPDEIPRP	0.0148
RRIRMRPPRLPRPRPRPWHLPRP	-0.00137
RRIRMRPPRLPRPRPRPEDGPRP	2.85
RRIRHRPPRLPRPRPRPHIIPRP	-0.192
RRIRARPPRLPRPRPRPAGAPRP	1.16
RRIRYRPPRLPRPRPRPSDQPRP	-0.235
RRIRVRPPRLPRPRPRPVFVPRP	-0.0229
RRIRVRPPRLPRPRPRPQMFPRP	-0.0716
RRIRKRPPRLPRPRPRPFMRPRP	0.24
RRIRNRPPRLPRPRPRPQDVPRP	-0.0757
RRIRLRPPRLPRPRPRPYFRPRP	-0.78
RRIRSRPPRLPRPRPRPGYWPRP	-0.0968

Sequence	shrunken log2 fold change
RRIRTRPPRLPRPRPRPIQEPRP	0.0124
RRIRDRPPRLPRPRPRPFFMPRP	0.033
RRIRFRPPRLPRPRPRPIQDPRP	-0.025
RRIRTRPPRLPRPRPRPARAPRP	0.786
RRIRLRPPRLPRPRPRPNFGPRP	0.0635
RRIRTRPPRLPRPRPRPNRCPRP	-0.189
RRIRGRPPRLPRPRPRPHQVPRP	0.078
RRIRNRPPRLPRPRPRPNMPPRP	-0.407
RRIRMRPPRLPRPRPRPYPQPRP	0.0818
RRIRARPPRLPRPRPRPFRKPRP	0.00339
RRIRGRPPRLPRPRPRPQSHPRP	0.214
RRIRDRPPRLPRPRPRPVHEPRP	-0.0506
RRIRKRPPRLPRPRPRPSSIPRP	-0.0636
RRIRCRPPRLPRPRPRPPVEPRP	0.35
RRIRRRPPRLPRPRPRPVIHPRP	-0.0832
RRIRWRPPRLPRPRPRPVPLPRP	0.00691
RRIRWRPPRLPRPRPRPWVAPRP	0.191
RRIRQRPPRLPRPRPRPALHPRP	1.38
RRIRYRPPRLPRPRPRPPHSPRP	-0.699
RRIRPRPPRLPRPRPRPLLSPRP	0.0345
RRIRYRPPRLPRPRPRPHTVPRP	-1.21
RRIRLRPPRLPRPRPRPNKNPRP	-0.366
RRIRKRPPRLPRPRPRPPHIPRP	0.41
RRIRNRPPRLPRPRPRPATQPRP	-0.0108
RRIRLRPPRLPRPRPRPCYWPRP	-0.317

Sequence	shrunken log2 fold change
RRIRTRPPRLPRPRPRPTQKPRP	-0.0787
RRIRDRPPRLPRPRPRPKPDPRP	0.306
RRIRWRPPRLPRPRPRPSGNPRP	-0.0162
RRIRHRPPRLPRPRPRPKMFPRP	-0.0772
RRIRYRPPRLPRPRPRPQKLPRP	-0.418
RRIRVRPPRLPRPRPRPFKHPRP	-0.0897
RRIRGRPPRLPRPRPRPLRAPRP	1.72
RRIRSRPPRLPRPRPRPKVFPRP	-0.063
RRIRARPPRLPRPRPRPNLNPRP	-0.0397
RRIRTRPPRLPRPRPRPFFIPRP	-0.518
RRIRMRPPRLPRPRPRPHGHPRP	0.256
RRIRCRPPRLPRPRPRPHGYPRP	-0.108
RRIRGRPPRLPRPRPRPIKWPRP	0.434
RRIRHRPPRLPRPRPRPQVTPRP	-0.0667
RRIRNRPPRLPRPRPRPPEHPRP	0.266
RRIRWRPPRLPRPRPRPGCFPRP	0.375
RRIRRRPPRLPRPRPRPHSMPRP	-0.118
RRIRIRPPRLPRPRPRPYNNPRP	-0.462
RRIRTRPPRLPRPRPRPFNIPRP	-0.333
RRIRNRPPRLPRPRPRPCYVPRP	-0.0102
RRIRGRPPRLPRPRPRPPLAPRP	1.35
RRIRPRPPRLPRPRPRPKLYPRP	0.0311
RRIRWRPPRLPRPRPRPMVTPRP	-0.072
RRIRARPPRLPRPRPRPAGKPRP	0.164
RRIRGRPPRLPRPRPRPVGTPRP	0.304
